Measured values taken from patent publication US11278600B2, “Human alpha-galactosidase variants” (Codexis, Inc., priority 2014, dated 2022).

Experiments:
Assay type in all cases: biochemical
[1] = HTP-analysis of supernatants pretreated with base (MUGal hydrolysis); conditions: activity of the variant/activity of Rd3BB (SEQ ID NO: 13); challenge at pH 9.7
In short: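 Supernatants from INVSc1 yeast expressing GLA variants (SD-Ura, 66-84 h, 30° C) were mixed with McIlvaine buffer pH 7.0-8.2 or 200 mM sodium bicarbonate pH 9.1-9.7 and held 1-18 h at 37° C. Residual activity was then measured on MUGal at pH 4.8/4.3, 37° C, 30-180 min, by fluorescence (Ex 355/Em 448 nm).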

[2] = HTP-analysis of yeast culture supernatants, no challenge (MUGal hydrolysis); conditions: activity of the variant/activity of Rd3BB (SEQ ID NO: 13)
In short: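 GLA variants were expressed in INVSc1 yeast grown in SD-Ura broth with glucose at 30° C., and culture supernatants were collected after 66-84 h. Supernatant was mixed with McIlvaine buffer pH 4.8 and MUGal (2 mM stock) in 50 mM citrate, 200 mM KCl, pH 4.6, incubated at 37° C. for 30-180 minutes, then quenched with sodium carbonate.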

[3] = HTP-analysis of supernatants pretreated with acid (MUGal hydrolysis); conditions: activity of the variant/activity of Rd3BB (SEQ ID NO: 13); challenge at pH 3.7
In short: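 Yeast INVSc1 supernatant, GLA variants; acid challenge: McIlvaine pH 3.3-4.3, 37° C., 1-3 h. Assay: MUGal in McIlvaine pH 4.8 plus citrate pH 4.3, 37° C., 30-180 min, Na2CO3 stop, Ex 355/Em 448 nm.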

B1: 608 (protein)
chain: LDNGLARQPTMGWLHWERFMCNLDCQEEPDSCISEKLFMEMAERMVSEGWKDAGYEYLCIDDCWMAPQRDSEGRLQADPQRFPHGIRQLANHVHSKGLKLGIYADVGNKTCAGFPGSFGYYDIDAQTFADWGVDLLKFDGCYCDSLENLADGYKHMSLALNRTGRSIVYSCEWPLYMWPFQKPNYTEIRQYCNHWRNFADIDDSWASIKSILDWTSRNQERIVDVAGPGGWNDPDMLVIGNFGLSWDQQVTQMALWAIMAAPLFMSNDLRHISPQAKALLQDKDVIAINQDPLGKQGYQLRKGDNFEVWERPLSGDAWAVAIINRQEIGGPRSYTIPVASLGKGVACNPACFITQLLPVKRQLGFYNWTSRLKSHINPTGTVLLQLENTMQMSLKDLL
modifications: Synthetic Polypeptide sequence of Variant No. 608 of mature Human GLA
[1]
  Relative Activity of GLA Variants After Challenge at pH 9.7: + (+ = 1.5 to 5 relative activity over Rd3BB (SEQ ID NO: 13))
[2]
  Relative Activity of GLA Variants After No Challenge (NC): + (+ = 1.5 to 5 relative activity over Rd3BB (SEQ ID NO: 13))
[3]
  Relative Activity of GLA Variants After Challenge at pH 3.7: + (+ = 1.5 to 5 relative activity over Rd3BB (SEQ ID NO: 13))

B2: 527 (protein)
chain: LDNGLARTPTMGWLHWERFMCNLDCQEEPDSCISEKLFMEMAERMVSEGWKDAGYEYLCIDDCWMAPQRDSEGRLQADPQRFPHGIRQLANEVHSKGLKLGIYADVGNKTCAGFPGSFGYYDIDAQTFADWGVDLLKFDGCYCDSLENLADGYKHMSLALNRTGRSIVYSCEWPLYMWPFQKPNYTEIRQYCNHWRNFADIDDSWASIKSILDWTSRNQERIVDVAGPGGWNDPDMLVIGNFGLSWDQQVTQMALWAIMAAPLFMSNDLRHISPQAKALLQDKDVIAINQDPLGKQGYQLRKGDNFEVWERPLSGDAWAVAIINRQEIGGPRSYTIPVASLGKGVACNPACFITQLLPVKRQLGFYNWTSRLKSHINPTGTVLLQLENTMQMSLKDLL
modifications: Synthetic Polypeptide sequence of Variant No. 527 of mature Human GLA
[1]
  Relative Activity of GLA Variants After Challenge at pH 9.7: ++ (++ = >5 to 10 relative activity over Rd3BB (SEQ ID NO: 13))
[2]
  Relative Activity of GLA Variants After No Challenge (NC): + (+ = 1.5 to 5 relative activity over Rd3BB (SEQ ID NO: 13))
[3]
  Relative Activity of GLA Variants After Challenge at pH 3.7: + (+ = 1.5 to 5 relative activity over Rd3BB (SEQ ID NO: 13))

B3: 525 (protein)
chain: LDNGLARTPTMGWLHWERFMCNLDCQEEPDSCISEKLFMEMAERMVSEGWKDAGYEYLCIDDCWMAPQRDSEGRLHADPQRFPHGIRQLANHVHSKGLKLGIYADVGNKTCAGFPGSFGYYDIDAQTFADWGVDLLKFDGCYCDSLENLADGYKHMSLALNRTGRSIVYSCEWPLYMWPFQKPNYTEIRQYCNHWRNFADIDDSWASIKSILDWTSRNQERIVDVAGPGGWNDPDMLVIGNFGLSWDQQVTQMALWAIMAAPLFMSNDLRHISPQAKALLQDKDVIAINQDPLGKQGYQLRKGDNFEVWERPLSGDAWAVAIINRQEIGGPRSYTIPVASLGKGVACNPACFITQLLPVKRQLGFYNATSRLKSHINPTGTVLLQLENTMQMSLKDLL
modifications: Synthetic Polypeptide sequence of Variant No. 525 of mature Human GLA
[1]
  Relative Activity of GLA Variants After Challenge at pH 9.7: ++ (++ = >5 to 10 relative activity over Rd3BB (SEQ ID NO: 13))
[2]
  Relative Activity of GLA Variants After No Challenge (NC): + (+ = 1.5 to 5 relative activity over Rd3BB (SEQ ID NO: 13))
[3]
  Relative Activity of GLA Variants After Challenge at pH 3.7: ++ (++ = >5 to 10 relative activity over Rd3BB (SEQ ID NO: 13))

B4: 523 (protein)
chain: LDNGLARTPTMGWLHWERFMCNLDCQEEPDSCISEKLFMEMAERMVSEGWKDAGYEYLCIDDCWMAPQRDSEGRLQADPQRFPHGIRQLAMHVHSKGLKLGIYADVGNKTCAGFPGSFGYYDIDAQTFADWGVDLLKFDGCYCDSLENLADGYKHMSLALNRTGRSIVYSCEWPLYMWPFQKPNYTEIRQYCNHWRNFADIDDSWASIKSILDWTSRNQERIVDVAGPGGWNDPDMLVIGNFGLSWDQQVTQMALWAIMAAPLFMSNDLRHISPQAKALLQDKDVIAINQDPLGKQGYQLRKGDNFEVWERPLSGDAWAVAIINRQEIGGPRSYTIPVASLGKGVACNPACFITQLLPVKRQLGFYNWTSRLKSHINPTGTVLLQLENTMQMSLKDLL
modifications: Synthetic Polypeptide sequence of Variant No. 523 of mature Human GLA
[1]
  Relative Activity of GLA Variants After Challenge at pH 9.7: + (+ = 1.5 to 5 relative activity over Rd3BB (SEQ ID NO: 13))
[2]
  Relative Activity of GLA Variants After No Challenge (NC): + (+ = 1.5 to 5 relative activity over Rd3BB (SEQ ID NO: 13))
[3]
  Relative Activity of GLA Variants After Challenge at pH 3.7: + (+ = 1.5 to 5 relative activity over Rd3BB (SEQ ID NO: 13))

B5: 526 (protein)
chain: LDNGLARTPTMGWLHWERFMCNLDCQEEPDSCISEKLFMEMAERMVSEGWKDAGYEYLCIDDCWMAPQRDSEGHLQADPQRFPHGIRQLANHVHSKGLKLGIYADVGNKTCAGFPGSFGYYDIDAQTFADWGVDLLKFDGCYCDSLENLADGYKHMSLALNRTGRSIVYSCEWPLYMWPFQKPNYTEIRQYCNHWRNFADIDDSWASIKSILDWTSRNQERIVDVAGPGGWNDPDMLVIGNFGLSWDQQVTQMALWAIMAAPLFMSNDLRHISPQAKALLQDKDVIAINQDPLGKQGYQLRKGDNFEVWERPLSGDAWAVAIINRQEIGGPRSYTIPVASLGKGVACNPACFITQLLPVKRQLGFYNWTSRLKSHINPTGTVLLQLENTMQMSLKDLL
modifications: Synthetic Polypeptide sequence of Variant No. 526 of mature Human GLA
[1]
  Relative Activity of GLA Variants After Challenge at pH 9.7: ++ (++ = >5 to 10 relative activity over Rd3BB (SEQ ID NO: 13))
[2]
  Relative Activity of GLA Variants After No Challenge (NC): + (+ = 1.5 to 5 relative activity over Rd3BB (SEQ ID NO: 13))
[3]
  Relative Activity of GLA Variants After Challenge at pH 3.7: + (+ = 1.5 to 5 relative activity over Rd3BB (SEQ ID NO: 13))

B6: 529 (protein)
chain: LDNGLARTPTMGWLHWERFMCNLDCQEEPDSCISEKLFMEMAERMVSEGWKDAGYEYLCIDDCWMAPQRDSEGRLQADPQRFPHGIRQLANHVHSKGLKLGIYADVGNKTCAGFPGSFGYYDIDAQTFADWGVDLLKFDGCYCDSLENLADGYKHMSLALNRTGRSIVYSCEWPLYMWPFQAPNYTEIRQYCNHWRNFADIDDSWASIKSILDWTSRNQERIVDVAGPGGWNDPDMLVIGNFGLSWDQQVTQMALWAIMAAPLFMSNDLRHISPQAKALLQDKDVIAINQDPLGKQGYQLRKGDNFEVWERPLSGDAWAVAIINRQEIGGPRSYTIPVASLGKGVACNPACFITQLLPVKRQLGFYNWTSRLKSHINPTGTVLLQLENTMQMSLKDLL
modifications: Synthetic Polypeptide sequence of Variant No. 529 of mature Human GLA
[1]
  Relative Activity of GLA Variants After Challenge at pH 9.7: ++ (++ = >5 to 10 relative activity over Rd3BB (SEQ ID NO: 13))
[2]
  Relative Activity of GLA Variants After No Challenge (NC): + (+ = 1.5 to 5 relative activity over Rd3BB (SEQ ID NO: 13))
[3]
  Relative Activity of GLA Variants After Challenge at pH 3.7: + (+ = 1.5 to 5 relative activity over Rd3BB (SEQ ID NO: 13))

B7: 528 (protein)
chain: LDNGLARTPTMGWLHWERFMCNLDCQEEPDSCISEKLFMEMAERMVSEGWKDAGYEYLCIDDCWMAPQRDSEGRLQADPQRFPHGIRQLANHVHSKGLKLGIYADVGNKTCAGFPGSFGYYDIDAQTFAQWGVDLLKFDGCYCDSLENLADGYKHMSLALNRTGRSIVYSCEWPLYMWPFQKPNYTEIRQYCNHWRNFADIDDSWASIKSILDWTSRNQERIVDVAGPGGWNDPDMLVIGNFGLSWDQQVTQMALWAIMAAPLFMSNDLRHISPQAKALLQDKDVIAINQDPLGKQGYQLRKGDNFEVWERPLSGDAWAVAIINRQEIGGPRSYTIPVASLGKGVACNPACFITQLLPVKRQLGFYNWTSRLKSHINPTGTVLLQLENTMQMSLKDLL
modifications: Synthetic Polypeptide sequence of Variant No. 528 of mature Human GLA
[1]
  Relative Activity of GLA Variants After Challenge at pH 9.7: ++ (++ = >5 to 10 relative activity over Rd3BB (SEQ ID NO: 13))
[2]
  Relative Activity of GLA Variants After No Challenge (NC): + (+ = 1.5 to 5 relative activity over Rd3BB (SEQ ID NO: 13))
[3]
  Relative Activity of GLA Variants After Challenge at pH 3.7: + (+ = 1.5 to 5 relative activity over Rd3BB (SEQ ID NO: 13))

B8: 524 (protein)
chain: LDNGLARTPTMGWLHWERFMCNLDCQEEPDSCISEKLFMEMAERMVSEGWKDAGYEYLCIDDCWMAPQRDSEGRLQADPQRFPHGIRQLAVHVHSKGLKLGIYADVGNKTCAGFPGSFGYYDIDAQTFADWGVDLLKFDGCYCDSLENLADGYKHMSLALNRTGRSIVYSCEWPLYMWPFQKPNYTEIRQYCNHWRNFADIDDSWASIKSILDWTSRNQERIVDVAGPGGWNDPDMLVIGNFGLSWDQQVTQMALWAIMAAPLFMSNDLRHISPQAKALLQDKDVIAINQDPLGKQGYQLRKGDNFEVWERPLSGDAWAVAIINRQEIGGPRSYTIPVASLGKGVACNPACFITQLLPVKRQLGFYNWTSRLKSHINPTGTVLLQLENTMQMSLKDLL
modifications: Synthetic Polypeptide sequence of Variant No. 524 of mature Human GLA
[1]
  Relative Activity of GLA Variants After Challenge at pH 9.7: + (+ = 1.5 to 5 relative activity over Rd3BB (SEQ ID NO: 13))
[2]
  Relative Activity of GLA Variants After No Challenge (NC): − (− = <1.5 relative activity to Rd3BB (SEQ ID NO: 13))
[3]
  Relative Activity of GLA Variants After Challenge at pH 3.7: + (+ = 1.5 to 5 relative activity over Rd3BB (SEQ ID NO: 13))
